Experimental data reported in patent US8101379B2, “Preparation of low bleeding anticoagulant fusion protein and its use” (Institute of Radiation Medicine Academy of Military Medical …, priority 2006, dated 2012).

T1: EPR-HV2 (EH), hirudin HV2 with EPR linked to its N-terminus
T1 sequence: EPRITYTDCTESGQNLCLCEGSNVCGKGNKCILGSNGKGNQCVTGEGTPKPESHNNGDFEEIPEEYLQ

T2: GVYAR-HV2 (GH), hirudin HV2 with GVYAR linked to its N-terminus
T2 sequence: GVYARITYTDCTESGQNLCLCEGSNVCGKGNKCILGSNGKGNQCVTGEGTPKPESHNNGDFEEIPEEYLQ


Legend:
[1] = test system: T1, EPR-HV2 (EH), hirudin HV2 with EPR linked to its N-terminus
[2] = test system: TH, hirudin linked at its amino-terminal with an oligopeptide recognizable and cleavable by thrombin
[3] = test system: T2, GVYAR-HV2 (GH), hirudin HV2 with GVYAR linked to its N-terminus
[4] = test system: FH, hirudin linked at its amino-terminal with an oligopeptide recognizable and cleavable by blood coagulation factor Xa
[5] = test system: rat carotid artery thrombosis model; experiment: Plasma TT levels in rat carotid artery thrombosis model; assay type: in vivo; details: NS group = 100%, X ± SD
Excerpt: (§1) (1) Analyses of GH, EH, FH and TH antithrombotic and hemorrhagic side-effects in rat carotid artery thrombosis model, and the results were listed in table 2 and 3.

[6] = test system: rat carotid artery thrombosis model; experiment: Time needed for thrombogenesis in rat carotid artery thrombosis model; assay type: in vivo; details: for Time needed for thrombogenesis: rat carotid artery, X ± SD, 10 animals; for time needed for thrombogenesis (in words): rat carotid artery thrombosis model, statement on table 2
Excerpt: as §1

[7] = test system: tail-cut mouse; experiment: Bleeding time in hemorrhagic model of tail-cut mouse; assay type: in vivo; details: for Bleeding time: X ± SD, 15 animals; for influence on hemorrhagic indexes compared with HV2 (in words): statement on table 3 and 4
Method: (2) The hemorrhagic side-effects of GH, EH, TH and FH in hemorrhagic model of tail-cut mouse were analyzed, and the results were listed in Table 4.

[8] = molecular target: FXIa (Homo sapiens, UniProt P03951); experiment: Anticoagulation activity by fibrin-clot method before and after cleavage by FXIa; assay type: biochemical
Method: (§2) EH, GH, FH and TH were cleaved respectively by thrombin, FXa and FXIa, then the activities of anticoagulation were assayed by fibrin-clot method.

[9] = molecular target: thrombin (Homo sapiens, UniProt P00734); experiment: Anticoagulation activity by fibrin-clot method before and after cleavage by thrombin; assay type: biochemical
Method: as §2

[10] = molecular target: FXa (Homo sapiens, UniProt P00742); experiment: Anticoagulation activity by fibrin-clot method before and after cleavage by FXa; assay type: biochemical
Method: as §2

Sequence of FXIa (P03951 388-625 limits assumed): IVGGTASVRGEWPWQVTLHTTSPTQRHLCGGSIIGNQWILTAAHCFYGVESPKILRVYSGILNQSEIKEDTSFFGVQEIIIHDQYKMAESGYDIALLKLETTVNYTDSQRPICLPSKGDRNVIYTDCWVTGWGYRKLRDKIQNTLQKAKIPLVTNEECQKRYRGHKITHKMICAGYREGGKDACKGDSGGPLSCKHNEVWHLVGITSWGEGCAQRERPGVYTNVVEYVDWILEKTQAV
Sequence of FXIa (P03951 19-387 partner limits assumed): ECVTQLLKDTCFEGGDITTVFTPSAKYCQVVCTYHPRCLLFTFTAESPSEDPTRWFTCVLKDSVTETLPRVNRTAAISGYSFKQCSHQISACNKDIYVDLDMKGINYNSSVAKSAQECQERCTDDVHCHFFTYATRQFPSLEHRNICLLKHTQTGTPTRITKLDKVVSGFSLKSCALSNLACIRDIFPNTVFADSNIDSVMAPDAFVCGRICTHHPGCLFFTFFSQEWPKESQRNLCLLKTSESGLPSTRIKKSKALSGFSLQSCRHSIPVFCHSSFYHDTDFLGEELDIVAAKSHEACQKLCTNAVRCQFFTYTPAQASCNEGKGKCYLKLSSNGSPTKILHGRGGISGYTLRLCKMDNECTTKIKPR
Sequence of FXa (P00742 235-488 limits assumed): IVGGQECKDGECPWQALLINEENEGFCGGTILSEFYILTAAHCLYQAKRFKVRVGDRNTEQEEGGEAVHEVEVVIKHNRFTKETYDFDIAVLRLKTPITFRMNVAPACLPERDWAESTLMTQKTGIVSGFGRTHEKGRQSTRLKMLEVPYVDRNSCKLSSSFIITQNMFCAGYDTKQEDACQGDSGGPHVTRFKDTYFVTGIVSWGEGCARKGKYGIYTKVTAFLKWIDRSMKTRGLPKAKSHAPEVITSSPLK
Sequence of FXa (P00742 41-179 partner limits assumed): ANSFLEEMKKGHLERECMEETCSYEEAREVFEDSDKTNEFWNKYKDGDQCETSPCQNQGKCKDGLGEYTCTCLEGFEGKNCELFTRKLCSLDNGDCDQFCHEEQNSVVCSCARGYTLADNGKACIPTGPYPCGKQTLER

Molecule | anticoagulation activity (fibrin-clot method) after 3 h of cleavage [1] | anticoagulation activity (fibrin-clot method) after 6 h of cleavage [1] | anticoagulation activity (fibrin-clot method) at 0 h of cleavage [1] | anticoagulation activity (fibrin-clot method) after 3 h of cleavage [2] | anticoagulation activity (fibrin-clot method) after 6 h of cleavage [2] | anticoagulation activity (fibrin-clot method) at 0 h of cleavage [2] | anticoagulation activity (fibrin-clot method) after 3 h of cleavage [3] | anticoagulation activity (fibrin-clot method) after 6 h of cleavage [3] | anticoagulation activity (fibrin-clot method) at 0 h of cleavage [3] | recognition and cleavage, read by release of anticoagulation activity [3] | anticoagulation activity (fibrin-clot method) after 3 h of cleavage [4] | anticoagulation activity (fibrin-clot method) after 6 h of cleavage [4] | anticoagulation activity (fibrin-clot method) at 0 h of cleavage [4] | recognition and cleavage, read by release of anticoagulation activity [1] | % of TT changes ([5]; 2 mg/kg) [%] | Time needed for thrombogenesis ([6]; 2 mg/kg) [s] | Bleeding time ([7]; tail-cut mouse, 1.5 mg/kg) [s] | % of TT changes ([5]; 4 mg/kg) [%] | time needed for thrombogenesis (in words) [6] | Time needed for thrombogenesis ([6]; 4 mg/kg) [s] | also measured
blood coagulation factor XIa | 256 | 512 | 0 | 0 | 64 | 0 | 0 | 0 | 0 | GH can be recognizable and cleavable by two blood coagulation factors of FXIa and FXa respectively | 0 | 0 | 0 |  |  |  |  |  |  |  | 
blood coagulation factor Xa | 64 | 128 | 0 | 32 | 64 | 0 | 64 | 128 | 0 | GH can be recognizable and cleavable by two blood coagulation factors of FXIa and FXa respectively | 64 | 128 | 0 | EH can be recognizable and cleavable by two blood coagulation factors of thrombin and FXa respectively |  |  |  |  |  |  | recognition and cleavage, read by release of anticoagulation activity [4]: while FH only by FXa
hirudin [HV2, reference compound] |  |  |  |  |  |  |  |  |  |  |  |  |  |  | 1005.62 ± 361.28 | 1117.00 ± 243.95 | 1532.5 ± 420.74 |  |  |  | 
thrombin | 0 | 0 | 0 | 0 | 0 | 0 | 2 | 8 | 0 |  | 2 | 8 | 0 | EH can be recognizable and cleavable by two blood coagulation factors of thrombin and FXa respectively |  |  |  |  |  |  | recognition and cleavage, read by release of anticoagulation activity [2]: TH only by thrombin
EH: hirudin (HV2) linked at its amino-terminal with the oligopeptide EPR recognizable and cleavable by both coagulation factors XIa and Xa (protein, ends and bridges not checked, hirudin (HV2) linked at its amino-terminal with the oligopeptide EPR recognizable and cleavable by both coagulation factors XIa and Xa) EPRITYTDCTESGQNLCLCEGSNVCGKGNKCILGSNGKGNQCVTGEGTPKPESHNNGDFEEIPEEYLQ |  |  |  |  |  |  |  |  |  |  |  |  |  |  | 108.41 ± 12.95 | 964.10 ± 179.68 | 203.89 ± 97.41 | 121.81 ± 13.68 | prolonged in a dose-dependent manner | 1083.90 ± 227.10 | influence on hemorrhagic indexes compared with HV2 (in words) [7]: less than that of HV2; Bleeding time ([7]; tail-cut mouse, 6 mg/kg): 338.77 ± 169.08 s; anticoagulation activity ([8]; 0 h): 0; anticoagulation activity ([8]; 3 h): 256; anticoagulation activity ([8]; 6 h): 512; anticoagulation activity ([9]; 0 h): 0; anticoagulation activity ([9]; 3 h): 0; anticoagulation activity ([9]; 6 h): 0; anticoagulation activity ([10]; 0 h): 0; anticoagulation activity ([10]; 3 h): 64; anticoagulation activity ([10]; 6 h): 128
GH: hirudin (HV2) linked at its amino-terminal with the oligopeptide GVYAR recognizable and cleavable by both thrombin and coagulation factor Xa (protein, ends and bridges not checked, hirudin (HV2) linked at its amino-terminal with the oligopeptide GVYAR recognizable and cleavable by both thrombin and coagulation factor Xa) GVYARITYTDCTESGQNLCLCEGSNVCGKGNKCILGSNGKGNQCVTGEGTPKPESHNNGDFEEIPEEYLQ |  |  |  |  |  |  |  |  |  |  |  |  |  |  | 104.35 ± 17.21 | 918.10 ± 204.16 | 165.46 ± 142.42 | 114.94 ± 19.82 | prolonged in a dose-dependent manner | 1006.7 ± 227.37 | influence on hemorrhagic indexes compared with HV2 (in words) [7]: less than that of HV2; Bleeding time ([7]; tail-cut mouse, 6 mg/kg): 304 ± 178.99 s; bleeding time compared with FH and TH (in words) ([7]; tail-cut mouse, statement): significantly shorter bleeding time than that of FH and TH group; anticoagulation activity ([8]; 0 h): 0; anticoagulation activity ([8]; 3 h): 0; anticoagulation activity ([8]; 6 h): 0; anticoagulation activity ([9]; 0 h): 0; anticoagulation activity ([9]; 3 h): 2; anticoagulation activity ([9]; 6 h): 8; anticoagulation activity ([10]; 0 h): 0; anticoagulation activity ([10]; 3 h): 64; anticoagulation activity ([10]; 6 h): 128
